The results in this text go back to patent publication US20220048996A1 (F STAR BETA, published 2022).

A word on the EC50: it is the concentration at which the effect is half-maximal. A high value points to weaker potency. As usually defined, the Kd is the equilibrium constant for the complex coming apart. Read a low Kd as tighter binding.

Assay [1] has as its target T1, cynomolgus CD137 expressed on DO11.10 cells (DO11.10-cCD137) (cynomolgus monkey, UniProt Q07011 24-255 (human entry)).
T1 chain: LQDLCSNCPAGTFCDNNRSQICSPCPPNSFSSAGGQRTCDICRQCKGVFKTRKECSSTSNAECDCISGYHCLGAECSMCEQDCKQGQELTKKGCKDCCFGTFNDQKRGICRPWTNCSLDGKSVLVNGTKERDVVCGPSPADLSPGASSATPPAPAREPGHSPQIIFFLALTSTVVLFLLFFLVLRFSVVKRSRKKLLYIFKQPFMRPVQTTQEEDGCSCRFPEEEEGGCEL
Put plainly: flow cytometry on DO11.10 cells expressing the target. As for the experimental part:
(§1) 50 μl of the antibody dilutions were added to the wells containing cells (final volume 100 μl) and incubated at 4° C. for 1 hour. […] The plates were washed and resuspended in 100 μl of PBS containing DAPI (Biotium, cat no 40043) at 1 μg/ml. The plates were analysed using a Canto II flow cytometer (BD Bioscience) and the data analysed using FlowJo. Dead cells were identified by their higher fluorescence on the UV (405 nm/450/50) channel and excluded from analysis. […] The GMFI data was fit using log (agonist) vs response (three parameters) in Graph Pad Prism Software to generate EC₅₀ values.

In assay [2] the target is T2, human CD137 expressed on DO11.10 cells (DO11.10-hCD137) (human, UniProt Q07011 24-255).
T2 construct: also called CD137 on human T cells
Described as above. The protocol:
as §1

Assay [3] has as its target T2, human CD137 expressed on DO11.10 cells …. Put plainly: cell-based or functional assay.
Target sequence in this assay (Q07011 24-255): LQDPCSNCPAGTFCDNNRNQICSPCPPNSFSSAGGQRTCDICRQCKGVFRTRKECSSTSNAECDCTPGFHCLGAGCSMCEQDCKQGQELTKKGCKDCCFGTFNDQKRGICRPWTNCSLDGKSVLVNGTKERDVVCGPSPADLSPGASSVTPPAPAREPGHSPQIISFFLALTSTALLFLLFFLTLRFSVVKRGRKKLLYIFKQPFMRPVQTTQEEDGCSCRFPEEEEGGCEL
Assay [4] addresses T3, human OX40 expressed on DO11.10 cells (DO11.10-hOX40) (human, UniProt P43489 29-277).
T3 sequence: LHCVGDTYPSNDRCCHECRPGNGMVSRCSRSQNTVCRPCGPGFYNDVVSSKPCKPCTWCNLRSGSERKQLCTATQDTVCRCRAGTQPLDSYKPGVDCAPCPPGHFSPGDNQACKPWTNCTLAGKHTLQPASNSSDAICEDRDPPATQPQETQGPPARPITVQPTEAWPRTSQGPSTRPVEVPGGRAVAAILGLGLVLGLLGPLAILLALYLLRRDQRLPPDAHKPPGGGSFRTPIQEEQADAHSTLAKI
Put plainly: cell-based or functional assay.

The target of assay [5] is T3, human OX40 expressed on DO11.10 cells …. Put plainly: flow cytometry on DO11.10 cells expressing the target. The protocol: as §1
(In general: A flow cytometer gives signals particle by particle.)

The target of assay [6] is T4, cynomolgus OX40 expressed on DO11.10 cells (DO11.10-cOX40) (cynomolgus, UniProt P43489 29-277 (human entry)).
T4 chain: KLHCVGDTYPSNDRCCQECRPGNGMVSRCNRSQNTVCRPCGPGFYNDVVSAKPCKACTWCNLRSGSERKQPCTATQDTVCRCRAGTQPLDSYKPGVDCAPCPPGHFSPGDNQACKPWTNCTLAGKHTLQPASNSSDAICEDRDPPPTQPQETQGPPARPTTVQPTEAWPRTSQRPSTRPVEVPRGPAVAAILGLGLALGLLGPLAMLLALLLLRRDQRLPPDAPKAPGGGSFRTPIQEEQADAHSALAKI
The description is as above. The protocol:
as §1

The target of another assay is T5, hCD137-mFc-Avi (human).
T5 construct: Dimer; a biotinylated version was used where the text says so; also called human CD137-mFc-Avi; hCD137-mFc-Avi-Bio
Kind of assay: SPR, antibody captured via anti-human Fc, dimeric antigen flowed, 1:1 fit. As for the experimental part:
(§2) For CD137 affinity determination, a Biacore CM5 chip (GE Healthcare) was coated with anti-human Fc using a Human Antibody Capture Kit (GE Healthcare) according to manufacturer's conditions, to a surface density of approximately 4000 RU. […] Human or cynomolgus CD137 (hCD137-mFc-Avi or cCD137-mFc-Avi) was flowed over at a range of concentrations in a three-fold dilution series starting at 200 nM, at a flow rate of 70 μl/min. The association time was 2 min and the dissociation time was 8 min. Running buffer was HBS-EP (GE Healthcare BR100188). Flow cells were regenerated by injecting 3M magnesium chloride at a flow rate of 30 μl/min for 30 seconds.
(§3) The binding kinetics were fit with a 1:1 Langmuir model to generate binding association (kₐ) and dissociation (kd) rates. Equilibrium binding constants (KD) were calculated by dividing the dissociation rate by the association rate for each sample. Data analysis was performed with BiaEvaluation software version 3.2.

The target in another assay is T6, cCD137-mFc-Avi (cynomolgus monkey).
T6 construct: 139 used; also called cyno CD137-mFc-Avi; recombinant cyno CD137
T6 chain: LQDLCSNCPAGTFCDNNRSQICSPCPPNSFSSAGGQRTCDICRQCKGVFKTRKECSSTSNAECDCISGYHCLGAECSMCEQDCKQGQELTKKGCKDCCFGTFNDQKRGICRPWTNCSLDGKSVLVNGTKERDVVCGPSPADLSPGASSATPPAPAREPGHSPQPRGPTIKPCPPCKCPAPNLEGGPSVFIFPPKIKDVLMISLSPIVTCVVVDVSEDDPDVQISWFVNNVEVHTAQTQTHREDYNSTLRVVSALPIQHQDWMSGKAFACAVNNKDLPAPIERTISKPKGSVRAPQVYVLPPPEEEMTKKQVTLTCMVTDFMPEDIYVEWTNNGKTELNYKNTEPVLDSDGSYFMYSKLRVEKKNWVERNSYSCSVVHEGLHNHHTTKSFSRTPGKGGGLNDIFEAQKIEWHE
The description is as above. As for the experimental part: as §2, §3

For another assay, the target named is T7, hOX40-mFc (human).
T7 construct: Dimeric; also called human OX40-mFc
T7 chain: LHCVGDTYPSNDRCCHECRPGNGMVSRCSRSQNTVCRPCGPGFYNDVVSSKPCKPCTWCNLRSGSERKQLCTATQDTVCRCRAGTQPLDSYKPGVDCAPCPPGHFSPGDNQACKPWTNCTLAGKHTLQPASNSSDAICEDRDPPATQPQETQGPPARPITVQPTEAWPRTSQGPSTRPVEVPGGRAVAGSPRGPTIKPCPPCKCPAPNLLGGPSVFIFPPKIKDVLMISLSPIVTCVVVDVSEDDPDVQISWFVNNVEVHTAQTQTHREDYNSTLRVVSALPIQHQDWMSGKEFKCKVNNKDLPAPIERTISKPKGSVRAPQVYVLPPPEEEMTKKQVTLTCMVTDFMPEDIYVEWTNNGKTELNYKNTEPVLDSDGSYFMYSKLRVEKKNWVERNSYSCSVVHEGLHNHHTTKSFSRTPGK
Put plainly: SPR, antibody captured via anti-human Fab, dimeric antigen flowed, 1:1 fit. As for the experimental part: (§4) For OX40 affinity determination a Biacore CM5 chip was coated with anti-human Fab using a Human Fab Capture Kit (GE Healthcare 28958325) according to manufacturer's conditions, to a surface density of approximately 8000 RU. […] The association time was 2 min and the dissociation time was 8 min. Running buffer was HBS-EP. Flow cells were regenerated by injecting glycine-HCl at pH 2.1 at a flow rate of 30 μl/min for 30 seconds.
as §3

For a further assay, the target named is T8, cOX40-mFc (cynomolgus).
T8 construct: Dimeric; also called cyno OX40-mFc
T8 chain: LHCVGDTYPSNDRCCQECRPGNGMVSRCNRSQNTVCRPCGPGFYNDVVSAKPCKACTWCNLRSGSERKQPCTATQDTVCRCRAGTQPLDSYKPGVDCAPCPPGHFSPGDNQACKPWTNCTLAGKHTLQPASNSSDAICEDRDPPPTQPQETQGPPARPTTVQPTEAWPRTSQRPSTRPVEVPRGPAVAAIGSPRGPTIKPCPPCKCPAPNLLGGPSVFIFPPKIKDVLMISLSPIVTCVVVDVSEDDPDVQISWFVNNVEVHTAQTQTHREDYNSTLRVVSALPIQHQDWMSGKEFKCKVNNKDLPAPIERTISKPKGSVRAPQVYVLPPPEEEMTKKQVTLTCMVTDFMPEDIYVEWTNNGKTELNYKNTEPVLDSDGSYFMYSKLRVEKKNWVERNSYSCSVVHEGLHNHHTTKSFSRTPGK
The assay is described as above. As for the experimental part: as §4, §3

B1: FS20-22-49AA/4420 (antibody, human IgG1, kappa, L234A L235A)
heavy: EVKLDETGGGLVQPGRPMKLSCVASGFTFSDYWMNWVRQSPEKGLEWVAQIRNKPYNYETYYSDSVKGRFTISRDDSKSSVYLQMNNLRVEDMGIYYCTGSYYGMDYWGQGTSVTVSSASTKGPSVFPLAPSSKSTSGGTAALGCLVKDYFPEPVTVSWNSGALTSGVHTFPAVLQSSGLYSLSSVVTVPSSSLGTQTYICNVNHKPSNTKVDKKVEPKSCDKTHTCPPCPAPEAAGGPSVFLFPPKPKDTLMISRTPEVTCVVVDVSHEDPEVKFNWYVDGVEVHNAKTKPREEQYNSTYRVVSVLTVLHQDWLNGKEYKCKVSNKALPAPIEKTISKAKGQPREPQVYTLPPSRDEYWDQEVSLTCLVKGFYPSDIAVEWESNGDEQFAYKTTPPVLDSDGSFFLYSKLTVDQYRWNPADYFSCSVMHEALHNHYTQKSLSLSPG
light: DVVMTQTPLSLPVSLGDQASISCRSSQSLVHSNGNTYLRWYLQKPGQSPKVLIYKVSNRFSGVPDRFSGSGSGTDFTLKISRVEAEDLGVYFCSQSTHVPWTFGGGTKLEIKRTVAAPSVFIFPPSDEQLKSGTASVVCLLNNFYPREAKVQWKVDNALQSGNSQESVTEQDSKDSTYSLSSTLTLSKADYEKHKVYACEVTHQGLSSPVTKSFNRGEC
notes: also called OX40/FITC mock mAb^2; FS20-22-49 Fcab in mock (4420 LALA) mAb^2 format
For the molecule B1, the binding result in assay [1] and in assay [2] was “no binding” in each case.

B2: FS20-22-49AA/FS30-5-37 (bispecific antibody, human IgG1, kappa, L234A L235A, V domains shown)
VH: EVQLLESGGGLVQPGGSLRLNCAASGFTFSSYAMSWVRQAPGKGLEWVSAISGSGGSTYYADSVKGRFTISRDNSKNTLYLQMNSLRAEDTAVYYCARSYDKYWGSSIYSGLDYWGQGTLVTVSS
VL: EIVLTQSPGTLSLSPGERATLSCRASQSVSSSYLAWYQQKPGQAPRLLIYGASSRATGIPDRFSGSGSGTDFTLTISRLEPEDFAVYYCQQYYSYYPVTFGQGTKVEIKR
notes: IgG1 with LALA; also called OX40/CD137 mAb^2
B2: in [3], the “EC50 of mIL-2 release, DO11.10-hCD137 assay, crosslinked” value worked out at 13.4 nM. Moreover, the “Emax of mIL-2 release, DO11.10-hCD137 assay, crosslinked” value in assay [3] is 18100 pg/mL. Further, the “SEA assay (PBMC), hIL-2 max response, crosslinked” value in assay [4] was 30700 pg/mL. In assay [4], the “SEA assay (PBMC), hIL-2 max response, no crosslinker” value is 29200 pg/mL. Also, in assay [4], the “SEA assay (PBMC), hIL-2 release EC50, crosslinked” value was determined as 0.5 nM. Moreover, in assay [4], the “SEA assay (PBMC), hIL-2 release EC50, no crosslinker” value was determined as 0.51 nM. Further, the EC50 amounted to 0.201 nM in assay [5], 0.111 nM in [1], 0.355 nM in [6] and 0.258 nM in [2]. For the same molecule, the Kd with hCD137-mFc-Avi amounted to 3.85 nM; in the assay with cCD137-mFc-Avi, 6.42 nM; in the assay with hOX40-mFc, 0.385 nM; with cOX40-mFc, 1.63 nM.

B3: FS20-22-49AA/FS30-10-3 (bispecific antibody, human IgG1, kappa, L234A L235A, V domains shown)
VH: EVQLLESGGGLVQPGGSLRLSCAASGFTFSSYDMSWVRQAPGKGLEWVSDIDPTGSKTDYADSVKGRFTISRDNSKNTLYLQMNSLRAEDTAVYYCARDLNVYGFDYWGQGTLVTVSS
VL: EIVLTQSPGTLSLSPGERATLSCRASQSVSSSYLAWYQQKPGQAPRLLIYGASSRATGIPDRFSGSGSGTDFTLTISRLEPEDFAVYYCQQSYSYPVTFGQGTKVEIKR
notes: as for B2
Take B3: the “EC50 of mIL-2 release, DO11.10-hCD137 assay, crosslinked” value in assay [3] worked out at 6.1 nM. The “Emax of mIL-2 release, DO11.10-hCD137 assay, crosslinked” value in assay [3] was determined as 17000 pg/mL. The “SEA assay (PBMC), hIL-2 max response, crosslinked” value in [4] was 33900 pg/mL. The “SEA assay (PBMC), hIL-2 max response, no crosslinker” value in assay [4] came out at 34900 pg/mL. In addition, in assay [4], the “SEA assay (PBMC), hIL-2 release EC50, crosslinked” value amounted to 0.38 nM. Also, the “SEA assay (PBMC), hIL-2 release EC50, no crosslinker” value in [4] is 0.29 nM. Moreover, the EC50 in assay [5] stood at 0.175 nM; in assay [1], 0.0682 nM; in assay [6], 0.394 nM; in [2], 0.12 nM. Besides, the Kd with hCD137-mFc-Avi was 0.342 nM; with cCD137-mFc-Avi, 0.318 nM; with hOX40-mFc, 0.285 nM; with cOX40-mFc, 1.11 nM.
